Measured values published in ChEMBL document CHEMBL1135258, “Substrate spectrum of tyrocidine thioesterase probed with randomized peptide N-acetylcysteamine thioesters” (Bioorg Med Chem Lett, 2002).

Legend:
Conditions in all cases: Brevibacillus brevis
[1] = substrate: CC(=O)NCCSC(=O)[C@H](CC(C)C)NC(=O)[C@H](CCCN)NC(=O)[C@@H](NC(=O)[C@H](Cc1ccc(O)cc1)NC(=O)[C@H](CCC(N)=O)NC(=O)[C@@H](NC(=O)[C@@H](Cc1ccccc1)NC(=O)[C@H](Cc1ccccc1)NC(=O)[C@@H]1CCCN1C(=O)[C@H](N)Cc1ccccc1)C(C)C)C(C)C; assay: (§1) Apparent kinetic constant (Km) determined for tyrocidine thioesterase amplified from Bacillus brevis (ATCC8185)
[2] = substrate: CC(=O)NCCSC(=O)[C@H](CC(C)C)NC(=O)[C@H](CCCN)NC(=O)[C@@H](NC(=O)[C@H](Cc1ccc(O)cc1)NC(=O)[C@H](CC(C)C)NC(=O)[C@H](CC(N)=O)NC(=O)[C@@H](Cc1ccccc1)NC(=O)[C@H](Cc1ccccc1)NC(=O)[C@@H]1CCCN1C(=O)[C@H](N)Cc1ccccc1)C(C)C; assay: as §1
[3] = substrate: CC(=O)NCCSC(=O)[C@H](CC(C)C)NC(=O)[C@H](CCCN)NC(=O)[C@@H](NC(=O)[C@H](Cc1ccc(O)cc1)NC(=O)[C@H](CCC(N)=O)NC(=O)[C@H](CC(N)=O)NC(=O)[C@H](CC(N)=O)NC(=O)[C@H](Cc1ccccc1)NC(=O)[C@@H]1CCCN1C(=O)[C@H](N)Cc1ccccc1)C(C)C; assay: as §1
[4] = substrate: CC(=O)NCCSC(=O)[C@H](CC(C)C)NC(=O)[C@H](CCCN)NC(=O)[C@@H](NC(=O)[C@H](Cc1ccc(O)cc1)NC(=O)[C@H](CCC(N)=O)NC(=O)[C@H](CC(N)=O)NC(=O)[C@H](CC(C)C)NC(=O)[C@H](Cc1ccccc1)NC(=O)[C@@H]1CCCN1C(=O)[C@H](N)Cc1ccccc1)C(C)C; assay: as §1
[5] = substrate: CC(=O)NCCSC(=O)[C@H](CC(C)C)NC(=O)[C@H](CCCN)NC(=O)[C@H](CCCN=C(N)N)NC(=O)[C@H](Cc1ccc(O)cc1)NC(=O)[C@H](CCC(N)=O)NC(=O)[C@H](CC(N)=O)NC(=O)[C@@H](Cc1ccccc1)NC(=O)[C@H](Cc1ccccc1)NC(=O)[C@@H]1CCCN1C(=O)[C@H](N)Cc1ccccc1; assay: as §1

B1: Thioesterase GrsT homolog tycF (Brevibacillus brevis), O30412 (protein)
chain: MKLFCFPYAGGLPGIYYSWKSRLPPTFLEIDAFEVRPHIPQPNRDVFLPTSFYELLEDVCDRITPALTETPFAFFGHSMGGLVAFELTRKLMQKGAPLPQHLFLSASRAPHAYGKLAKTYNLPHDEFVEALRKLGGTPDDVLENQELLELFLPILRADFQAVQTYEMNPDLPRQVPVNMTVLYGTEDTIALEDIWAWRDYCQGACQFFPVSGGHFFIHHQTSPILEIIQNVLKEEKTVAIHSSF
B1 gave a Km [1] of 25 µM, a Km [2] of 135 µM and a Km [3] of 19 µM. For the same protein, the Km [4] was 29 µM and the Km [5] was 33 µM.
